Results taken from the supplement of paper PMC7877785.
± gives the uncertainty stated by the source.

Assay: self-splicing fitness, log relative to wild type (ln ratio); higher = more splicing; Tetrahymena group I intron in knt gene, E. coli kanamycin selection, DiMSum; sequences stand for … in CUCUCU…GGAGGGAAAAGUUAUCAGGCAUGCACCUGGUAGCUAGUCUUUAAACCAAUAGAUUGCAUCGGUUUAAAAGGCAAGACCGUCAAAUUGCGGGAAAGGGGUCAACAGCCGUUCAGUACCAAGUCUCAGGGGAAACUUUGAGAUGGCCUUGCAAAGGGUAUGGUAAUAAGCUGACGGACAUGGUCCUAACCACGCAGCCAAGUCCUAAGUCAACAGAUCUUCUGUUGAUAUGGAUGCAGUUCACAGACUAAAUGUCGGUCGGGGAAGAUGUAUUCUUCUCAUAAGAUAUAGUCGGACCUCUCCUUAAUGGGAGCUAGCGGAUGAAGUGAUGCAACACUGGAGCCGCUGGGAACUAAUUUGUAUGCGAAAGUAUAUUGAUUAGUUUUGGAGUACUCGUGGUCG
Procedure, shortened: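 Colonies from six replicate transformations of E. coli BL21(DE3) were pooled and amplicon-sequenced on an Illumina HiSeq 2500. The library placed an intron with all eight P1ex-region nucleotides randomised inside the knt kanamycin-resistance gene on pET-22b(+), and cells grew overnight at 37°C or 30°C on LB agar with or without 25 μg/mL kanamycin (plus 100 μg/mL carbenicillin, 50 μM IPTG, 0.2% rhamnose). Fitness is the DiMSum error-weighted combination of wild-type-normalised replicate fold changes, kanamycin versus none.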

UUUAAGCAAUAUUACGCAUC
self-splicing fitness (ln) (30 °C): -2.75 ± 0.36
self-splicing fitness (ln) (37 °C): -2.25 ± 0.32

UAGAAGCAAUAUUACGAGUA
self-splicing fitness (ln) (30 °C): -1.31 ± 0.096
self-splicing fitness (ln) (37 °C): -0.33 ± 0.12

ACAUAGCAAUAUUACGGUGG
self-splicing fitness (ln) (30 °C): -3.62 ± 0.14
self-splicing fitness (ln) (37 °C): -2.14 ± 0.12

CGGAAGCAAUAUUACGGUCA
self-splicing fitness (ln) (30 °C): -0.599 ± 0.078
self-splicing fitness (ln) (37 °C): 0.421 ± 0.08

UGAGAGCAAUAUUACGCGGU
self-splicing fitness (ln) (37 °C): -0.929 ± 0.39

ACUGAGCAAUAUUACGCAUG
self-splicing fitness (ln) (30 °C): -1.95 ± 0.14
self-splicing fitness (ln) (37 °C): -2.23 ± 0.16

GUGAAGCAAUAUUACGAACC
self-splicing fitness (ln) (30 °C): -3.05 ± 0.29

GAUAAGCAAUAUUACGCUUC
self-splicing fitness (ln) (37 °C): -3.04 ± 0.29

AUACAGCAAUAUUACGGCAG
self-splicing fitness (ln) (30 °C): -2.21 ± 0.072
self-splicing fitness (ln) (37 °C): -0.564 ± 0.077

CGUGAGCAAUAUUACGGUAC
self-splicing fitness (ln) (30 °C): -3.78 ± 0.35
self-splicing fitness (ln) (37 °C): -1.63 ± 0.31

AGAAAGCAAUAUUACGUGUU
self-splicing fitness (ln) (30 °C): -3.31 ± 0.15
self-splicing fitness (ln) (37 °C): -1.99 ± 0.12

CUGCAGCAAUAUUACGCCCA
self-splicing fitness (ln) (37 °C): -1.31 ± 0.49

AAGCAGCAAUAUUACGCCGU
self-splicing fitness (ln) (30 °C): -1.22 ± 0.11
self-splicing fitness (ln) (37 °C): -0.738 ± 0.13

CUCUAGCAAUAUUACGUAUU
self-splicing fitness (ln) (30 °C): -2.14 ± 0.13
self-splicing fitness (ln) (37 °C): -3.57 ± 0.25

ACCAAGCAAUAUUACGCAGU
self-splicing fitness (ln) (30 °C): -3.71 ± 0.22
self-splicing fitness (ln) (37 °C): -2.77 ± 0.28

CCCUAGCAAUAUUACGACCA
self-splicing fitness (ln) (30 °C): -3.35 ± 0.24
self-splicing fitness (ln) (37 °C): -3.33 ± 0.27

GACCAGCAAUAUUACGUAGU
self-splicing fitness (ln) (30 °C): -0.667 ± 0.061
self-splicing fitness (ln) (37 °C): -0.248 ± 0.077

CAAAAGCAAUAUUACGACAU
self-splicing fitness (ln) (30 °C): -2.345 ± 0.013
self-splicing fitness (ln) (37 °C): -1.34 ± 0.033

ACGAAGCAAUAUUACGGCAC
self-splicing fitness (ln) (30 °C): -2.03 ± 0.17
self-splicing fitness (ln) (37 °C): -0.996 ± 0.24

GGCGAGCAAUAUUACGAUUC
self-splicing fitness (ln) (30 °C): -0.495 ± 0.1
self-splicing fitness (ln) (37 °C): 0.463 ± 0.14

CGACAGCAAUAUUACGUUGU
self-splicing fitness (ln) (30 °C): -3.46 ± 0.1
self-splicing fitness (ln) (37 °C): -3.25 ± 0.15

CACCAGCAAUAUUACGAUGG
self-splicing fitness (ln) (30 °C): -1.58 ± 0.06
self-splicing fitness (ln) (37 °C): -0.874 ± 0.079

CCAAAGCAAUAUUACGCUUC
self-splicing fitness (ln) (30 °C): -3.37 ± 0.18
self-splicing fitness (ln) (37 °C): -2.48 ± 0.18

UUGGAGCAAUAUUACGCCUA
self-splicing fitness (ln) (30 °C): -1.39 ± 0.2
self-splicing fitness (ln) (37 °C): -0.365 ± 0.19

CAAGAGCAAUAUUACGGAUC
self-splicing fitness (ln) (30 °C): -3.07 ± 0.18
self-splicing fitness (ln) (37 °C): -3.27 ± 0.27

AGGUAGCAAUAUUACGGGGG
self-splicing fitness (ln) (30 °C): -3.715 ± 0.031
self-splicing fitness (ln) (37 °C): -2.94 ± 0.044

GGCUAGCAAUAUUACGGACA
self-splicing fitness (ln) (30 °C): -0.485 ± 0.091
self-splicing fitness (ln) (37 °C): -0.398 ± 0.098

CAACAGCAAUAUUACGAAUC
self-splicing fitness (ln) (30 °C): -3.47 ± 0.13
self-splicing fitness (ln) (37 °C): -2.41 ± 0.14

GUGCAGCAAUAUUACGUGCG
self-splicing fitness (ln) (30 °C): -2.56 ± 0.1
self-splicing fitness (ln) (37 °C): -2.06 ± 0.14

UUCCAGCAAUAUUACGACGU
self-splicing fitness (ln) (30 °C): -2.06 ± 0.18
self-splicing fitness (ln) (37 °C): -2.18 ± 0.2

AGUCAGCAAUAUUACGUCUU
self-splicing fitness (ln) (30 °C): -0.994 ± 0.095
self-splicing fitness (ln) (37 °C): -0.306 ± 0.11

AUGCAGCAAUAUUACGACAU
self-splicing fitness (ln) (30 °C): -0.23 ± 0.012
self-splicing fitness (ln) (37 °C): 0.215 ± 0.032

GCAGAGCAAUAUUACGCUUA
self-splicing fitness (ln) (30 °C): -1.76 ± 0.3
self-splicing fitness (ln) (37 °C): -1.99 ± 0.3

UGCAAGCAAUAUUACGGAGG
self-splicing fitness (ln) (30 °C): -3.21 ± 0.19
self-splicing fitness (ln) (37 °C): -1.42 ± 0.16

GGGCAGCAAUAUUACGUACG
self-splicing fitness (ln) (30 °C): -0.697 ± 0.12
self-splicing fitness (ln) (37 °C): -0.0767 ± 0.14

GUCAAGCAAUAUUACGCUUG
self-splicing fitness (ln) (30 °C): -4.27 ± 0.36
self-splicing fitness (ln) (37 °C): -2.06 ± 0.23

GCCGAGCAAUAUUACGACAA
self-splicing fitness (ln) (30 °C): -3.38 ± 0.34
self-splicing fitness (ln) (37 °C): -2.05 ± 0.24

AGCCAGCAAUAUUACGUUGC
self-splicing fitness (ln) (30 °C): -2.87 ± 0.18
self-splicing fitness (ln) (37 °C): -3.28 ± 0.27

UUAAAGCAAUAUUACGUGUU
self-splicing fitness (ln) (30 °C): -3 ± 0.13
self-splicing fitness (ln) (37 °C): -1.96 ± 0.16
